From patent EP4570823A1

Target: Aβ oligomers, P05067
Test: SPR (Biacore), 3F fixed on CM5 chip, Aβ oligomers in flow
Details: remark: other sources report otherwise

Chain of Aβ oligomers, P05067 (P05067 672-713): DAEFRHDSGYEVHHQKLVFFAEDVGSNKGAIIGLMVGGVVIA

Kd: 0.847 nM
B1: antibody 3F (scFv)
scFv: MAEVQLLESGGGLVQPGGSLRLSCAASGFTFSSYAMSWVRQAPGKGLEWVSGISNLGLTTGYADSVKGRFTISRDNSKNTLYLQMNSLRAEDTAVYYCAKTTSRFDYWGQGTLVTVSSGGGGSGGGGSGGGGSTDIQMTQSPSSLSASVGDRVTITCRASQSISSYLNWYQQKPGKAPKLLIYKASYLQSGVPSRFSGSGSGTDFTLTISSLQPEDFATYYCQNSAVRPVTFGQGTKVEIKR
